From patent US20120276019 come the findings set out here.

In data set [1] the target is recombinant α-synuclein, full length (1-140 AA) (rPeptide) (UniProt P37840).
Data set [2] addresses recombinant α-synuclein 1-95 (1-95 AA) (GenWay Biotech) (UniProt P37840).

Sequence of porcine pancreas derived KLK1 (chain, as listed by the source): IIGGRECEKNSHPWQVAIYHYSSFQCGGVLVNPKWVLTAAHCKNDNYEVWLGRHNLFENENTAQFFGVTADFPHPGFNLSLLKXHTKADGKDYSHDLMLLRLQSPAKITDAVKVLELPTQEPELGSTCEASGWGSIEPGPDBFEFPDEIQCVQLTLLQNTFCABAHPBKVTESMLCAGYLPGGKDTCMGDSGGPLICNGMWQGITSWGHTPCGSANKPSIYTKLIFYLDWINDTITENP

As for porcine pancreas derived KLK1, the “degradation (cleavage) of α-synuclein, Western blot after 24 hours at 37° C., 100 nM KLK1 + 2.5 µM α-synuclein” value in data set [1] was “After 24 hours of treatment, all detectable α-synuclein was degraded by KLK1”. Besides, in data set [2], the “degradation (cleavage) of α-synuclein 1-95, Western blot after 3 hours at 37° C., 1 mM KLK1 + 250 µg/ml α-synuclein 1-95” value is recorded as “After 3 hours of treatment, all detectable α-synuclein 1-95 was degraded by KLK1”.
